In assay [1] the target is Ipi3 (Chaetomium thermophilum (endogenous in mycelium)). Briefly: cryo-EM structure; isolated rixosome from the PTF-Las1 eluate; Rix1 complex and Las1-Grc3 processed individually, whole rixosome at low resolution.
For assay [2] the target is unchanged. Nature of the assay: cryo-EM structure; pre-60S particles from the Flag eluates of PT-Rsa4 E117D with Nop7-Flag, Rix1-Flag or Flag-Las1.
Assay [3] deals with Rix1 (Chaetomium thermophilum (endogenous in mycelium)). Briefly: cryo-EM structure; isolated rixosome from the PTF-Las1 eluate; Rix1 complex and Las1-Grc3 processed individually, whole rixosome at low resolution.
The target is the same in assay [4]. Nature of the assay: cryo-EM structure; pre-60S particles from the Flag eluates of PT-Rsa4 E117D with Nop7-Flag, Rix1-Flag or Flag-Las1.
Assay [5] concerns the target polynucleotide kinase Grc3 (Chaetomium thermophilum (endogenous in mycelium)). Nature of the assay: cryo-EM structure; isolated rixosome from the PTF-Las1 eluate; Rix1 complex and Las1-Grc3 processed individually, whole rixosome at low resolution.
The target in assay [6] is wild‐type ct PTF‐Las1 (Chaetomium thermophilum). The assay is described as above.

As a reminder, the stoichiometry N is the number of molecules, sites or subunits per partner or assembly.

Consider Ipi3 (natural protein), for which the stoichiometry N in assay [1] and in assay [2] was 2 copies each time. As for Rix1 (natural protein), the stoichiometry N in assay [3] and in assay [4] was 2 copies in each case. Regarding polynucleotide kinase Grc3 (enzyme), the stoichiometry N in assay [5] is 2 copies. In the case of wild‐type ct PTF‐Las1 (enzyme), the stoichiometry N in assay [6] worked out at 2 copies.

Source of the values: PMC10702828.
